Reference: article PMC10667928

Assays:
[1] = target: human chimeric MC4R chim7 (named Mut in this study) (human) (UniProt P32245); assay: FRET or BRET; FRET-FLIM (pulsed interleaved excitation) on fixed HEK293T cells, basal or apical membrane; first-named protomer with C-terminal eGFP (donor, written as binder), second with C-terminal mCherry (acceptor, written as target); donor/acceptor ratio 1:5 at transfection; lifetime-based FRET efficiency Eτ against donor-only samples
[2] = target: Xiphophorus multilineatus melanocortin 4 receptor, mutant B1 allele (Mc4r B1) (X. multilineatus); assay: FRET or BRET; FRET-FLIM data of the fixed cells sorted by stoichiometry (<0.3, 0.3-0.5, 0.5-0.7, >0.7); dimerization grade by equation (8): β1AR as monomer baseline, CD28 at stoichiometry <0.3 as 100%
[3] = target: Xiphophorus multilineatus melanocortin 4 receptor, mutant B2 allele (Mc4r B2) (X. multilineatus); assay: as above
[4] = target: Xiphophorus multilineatus melanocortin 4 receptor, wild-type A allele (Mc4r A) (X. multilineatus); assay: as above
[5] = target: Xiphophorus multilineatus melanocortin 4 receptor, mutant B1 allele (Mc4r B1) (X. multilineatus); assay: FRET or BRET; FRET-FLIM (pulsed interleaved excitation) on fixed HEK293T cells, basal or apical membrane; first-named protomer with C-terminal eGFP (donor, written as binder), second with C-terminal mCherry (acceptor, written as target); donor/acceptor ratio 1:1 at transfection; lifetime-based FRET efficiency Eτ against donor-only samples
[6] = target: Xiphophorus multilineatus melanocortin 4 receptor, wild-type A allele (Mc4r A) (X. multilineatus); assay: as above
[7] = target: Xiphophorus multilineatus melanocortin 4 receptor, mutant B1 allele (Mc4r B1) (X. multilineatus); assay: FRET or BRET; FRET-FLIM (pulsed interleaved excitation) on fixed HEK293T cells, basal or apical membrane; first-named protomer with C-terminal eGFP (donor, written as binder), second with C-terminal mCherry (acceptor, written as target); donor/acceptor ratio 1:5 at transfection; lifetime-based FRET efficiency Eτ against donor-only samples
[8] = target: Xiphophorus multilineatus melanocortin 4 receptor, mutant B2 allele (Mc4r B2) (X. multilineatus); assay: as above
[9] = target: Xiphophorus multilineatus melanocortin 4 receptor, wild-type A allele (Mc4r A) (X. multilineatus); assay: as above

Row | FRET efficiency Eτ [1] [%] | dimerization grade at stoichiometry 0.3-0.5 [2] [%] | dimerization grade at stoichiometry <0.3 [2] [%] | dimerization grade at stoichiometry 0.3-0.5 [3] [%] | dimerization grade at stoichiometry <0.3 [3] [%] | dimerization grade at stoichiometry 0.3-0.5 [4] [%] | dimerization grade at stoichiometry <0.3 [4] [%] | FRET efficiency Eτ [5] [%] | FRET efficiency Eτ [6] [%] | donor (eGFP) lifetime; donor-only 2.13 ns [6] [ns] | FRET efficiency Eτ [7] [%] | FRET efficiency Eτ [8] [%] | FRET efficiency Eτ [9] [%] | donor (eGFP) lifetime; donor-only 2.13 ns [9] [ns] | Substance
1 | 19.6 | – | – | – | – | – | – | – | – | – | – | – | – | – | human MC4R wild-type (from UniProt P32245 1-332) (receptor)
2 | – | 28 | 52 | 28 | 52 | 26 | 76 | 15.4 | 12.7 | 1.85 | 21.6 | 23.8 | 26.1 | 1.57 | Xiphophorus multilineatus melanocortin 4 receptor, wild-type A allele (Mc4r A)
